These results are taken from patent US20030208060A1 (published 2003).

Sequences and labels used below:
B1: glutathione-S-transferase (GST)-fusion protein containing apoB48R amino acid 223 to 710 (other)
chain: EMEQGVREADAGETEEPGAEGAGKGEEVVVVEKACESTRAWGTWGPGAEPEDWGILGREEARTTPGREEARAILDGEEARTISGGEEAETASGGEEAETASGGEEAGTASGGEEAGISSGGEAGTASGGEEAGTASGGDEAWTTSGKEEADLLGVRQTQYGAVPGERLLEATGKVWVLEEEGDEEREAEVSPFPKQAQVLGTERTEEAAESQTAGREAVGGQEAGESFEGQVDLRGKEAEMRQDLGIRADRAKMEELVQAEEAQEERGSSRDPVAELPSDGEAEGTADLEATPEARPEEELTGEESEAAQTSCGLLGVEWGGLTHSVTKGQGPELMGGAQTPTKQPEEREAGEVELMGVLALSKEEQERSLEAGPRHAGSVKPEASEAFPGAWENRTRKDMERGNTQEDAADGEQREEEETAGGQTLAAEAEGDRESELSEVPEAGGEGLTTQDAGCGTEEGEASVSENQELDGSTGADAGPCPSLGE
notes: Migrates as a dimer on SDS-PAGE; also called apoB48R-GST fusion protein (aa 223-710); not shown: glutathione-S-transferase of the pGEX-5X-3 vector (Pharmacia)
B2: GST fusion protein containing apoB48R amino acid 714-917 (other)
chain: RETEDEEAEADRTSRRGWRLQAVAVGLPDREDAQTGSVAAGIMGGDVVPHISAAGAGEALEGALGQGWDSKEKEEAAAGEHAGGQEFGLEGSAEEEVTGRGSQVEAFESREGGPWGGRVEAEESAGAEDSCGLDPAGSQTARAEGMGAMVEAGGLLEKWTLLEEEAVGWQEREQREDSEGRCGDYHPEGEAPRLLDAEGLMVTG
notes: not shown: glutathione-S-transferase of the pGEX-5X-3 vector (Pharmacia)
B3: human receptor-associated protein (RAP) (other, UniProt P30533 35-357, looked up)
chain: YSREKNQPKPSPKRESGEEFRMEKLNQLWEKAQRLHLPPVRLAELHADLKIQERDELAWKKLKLDGLDEDGEKEARLIRNLNVILAKYGLDGKKDARQVTSNSLSGTQEDGLDDPRLEKLWHKAKTSGKFSGEELDKLWREFLHHKEKVHEYNVLLETLSRTEEIHENVISPSDLSDIKGSVLHSRHTELKEKLRSINQGLDRLRRVSHQGYSTEAEFEEPRVIDLWDLAQSANLTDKELEAFREELKHFEAKIEKHNHYQKQLEIAHEKLRHAESVGDGERVSRSREKHALLEGRTKELGYTVKKHLQDLSGRISRARHNEL
B4: MBP200 (membrane binding protein of ~200 kDa; human monocyte-macrophage apoB48 receptor, apoB48R) (receptor)
chain: MDFLRLYLPGLHQALRGALDSLGTFVSYLLGDAVPTVEREAQAAEELGVVAVGKTGKIVEEEAQEDLEGLRGSQNEGAGRLRGPGDDRRHEVGSSAVEQTWGWGDGSSHGSQAERQDSGAGETAKAARCQEPSAHLEARKKSKAGSGACQDRSGQAQERQESHEQEVNREERLRSWEQEEEEEEVRAREPGMARGAESEWTWHGETEGKAGAVGPKAAGDNREMEQGVREADAGETEEPGAEGAGKGEEVVVVEKACESTRAWGTWGPGAEPEDWGILGREEARTTPGREEARAILDGEEARTISGGEEAETASGGEEAETASGGEEAGTASGGEEAGISSGGEAGTASGGEEAGTASGGDEAWTTSGKEEADLLGVRQTQYGAVPGERLLEATGKVWVLEEEGDEEREAEVSPFPKQAQVLGTERTEEAAESQTAGREAVGGQEAGESFEGQVDLRGKEAEMRQDLGIRADRAKMEELVQAEEAQEERGSSRDPVAELPSDGEAEGTADLEATPEARPEEELTGEESEAAQTSCGLLGVEWGGLTHSVTKGQGPELMGGAQTPTKQPEEREAGEVELMGVLALSKEEQERSLEAGPRHAGSVKPEASEAFPGAWENRTRKDMERGNTQEDAADGEQREEEETAGGQTLAAEAEGDRESELSEVPEAGGEGLTTQDAGCGTEEGEASVSENQELDGSTGADAGPCPSLGEAYARETEDEEAEADRTSRRGWRLQAVAVGLPDREDAQTGSVAAGIMGGDVVPHISAAGAGEALEGALGQGWDSKEKEEAAAGEHAGGQEFGLEGSAEEEVTGRGSQVEAFESREGGPWGGRVEAEESAGAEDSCGLDPAGSQTARAEGMGAMVEAGGLLEKWTLLEEEAVGWQEREQREDSEGRCGDYHPEGEAPRLLDAEGLMVTGGRRAEAKETEPESLEHVRGQEEQPTHQAPAEAAPESVGEAETAEAMGSARGGAANSWSEAPLPGSLLDVSVPRSRVHLSRSSSQRRSRPSFRRTPAWEQQEEPPAPNPPEEELSAPEQRPLQLEEPLEPSPLRHDGTPVPARRRPLGHGFGLAHPGMMQELQARLGRPKPQ
notes: Native protein in Triton X-114 aqueous-phase extracts of THP-1 monocytes, run on non-reducing SDS-PAGE and blotted to nitrocellulose; Apparent Mr ~200 kD against ~114.8 kD deduced; also called TGRLP receptor; TGRLP/ApoB receptor
B5: GST fusion protein containing apoB48R amino acid 629-1088 (other)
chain: QEDAADGEQREEEETAGGQTLAAEAEGDRESELSEVPEAGGEGLTTQDAGCGTEEGEASVSENQELDGSTGADAGPCPSLGEAYARETEDEEAEADRTSRRGWRLQAVAVGLPDREDAQTGSVAAGIMGGDVVPHISAAGAGEALEGALGQGWDSKEKEEAAAGEHAGGQEFGLEGSAEEEVTGRGSQVEAFESREGGPWGGRVEAEESAGAEDSCGLDPAGSQTARAEGMGAMVEAGGLLEKWTLLEEEAVGWQEREQREDSEGRCGDYHPEGEAPRLLDAEGLMVTGGRRAEAKETEPESLEHVRGQEEQPTHQAPAEAAPESVGEAETAEAMGSARGGAANSWSEAPLPGSLLDVSVPRSRVHLSRSSSQRRSRPSFRRTPAWEQQEEPPAPNPPEEELSAPEQRPLQLEEPLEPSPLRHDGTPVPARRRPLGHGFGLAHPGMMQELQARLGRPKPQ
notes: as for B2

Data set [1] deals with the molecule itself. Briefly: SDS-PAGE of the purified fusion protein.
Data set [2] deals with the molecule itself. The data set can be described thus: SDS-PAGE of the purified GST fusion protein.
Data set [3] has as its target B4. The data set can be described thus: ligand blot. As for the experimental part: The ligand blotting assay was performed essentially as described (Gianturco et al., 1988, 1994; Ramprasad et al., 1995) with minor modifications. Aliquots of the detergent extracts were electrophoresed on 5% polyacrylamide gels containing 0.1% SDS (Laemmli, 1970) under non-reducing conditions in a Bio-Rad minigel apparatus and electrotransferred to nitrocellulose. After blocking for 1 hour with 5% Carnation nonfat dry milk in ligand buffer (50 mM Tris-HCl (pH 8), 90 mM NaCl and 2 mM CaCl₂), the blots were rinsed with 0.5% milk in ligand buffer before incubation with lipoproteins in ligand buffer containing 0.05% milk (Gianturco et al., 1988).
For competitive ligand blots, TGRLP were biotinylated as described (O'Shannessy et al., 1984) and dialyzed extensively before use. […] After extensive washing, bound lipoprotein was detected by incubation with streptavidin linked to alkaline phosphatase, followed by substrates BCIP and NBT (Bio-Rad Laboratories, CA). In some experiments without antibodies as potential competitors, native, unlabeled TGRLP were used as the ligand, and bound TGRLP was detected with anti-apoB followed by alkaline phosphatase-linked secondary antibody. […]

The target of data set [4] is T1, intermediate density lipoprotein (human, UniProt P04114 28-4563).
T1 construct: Lipoprotein particle; also called IDL
T1 sequence (P04114 28-4563 limits assumed): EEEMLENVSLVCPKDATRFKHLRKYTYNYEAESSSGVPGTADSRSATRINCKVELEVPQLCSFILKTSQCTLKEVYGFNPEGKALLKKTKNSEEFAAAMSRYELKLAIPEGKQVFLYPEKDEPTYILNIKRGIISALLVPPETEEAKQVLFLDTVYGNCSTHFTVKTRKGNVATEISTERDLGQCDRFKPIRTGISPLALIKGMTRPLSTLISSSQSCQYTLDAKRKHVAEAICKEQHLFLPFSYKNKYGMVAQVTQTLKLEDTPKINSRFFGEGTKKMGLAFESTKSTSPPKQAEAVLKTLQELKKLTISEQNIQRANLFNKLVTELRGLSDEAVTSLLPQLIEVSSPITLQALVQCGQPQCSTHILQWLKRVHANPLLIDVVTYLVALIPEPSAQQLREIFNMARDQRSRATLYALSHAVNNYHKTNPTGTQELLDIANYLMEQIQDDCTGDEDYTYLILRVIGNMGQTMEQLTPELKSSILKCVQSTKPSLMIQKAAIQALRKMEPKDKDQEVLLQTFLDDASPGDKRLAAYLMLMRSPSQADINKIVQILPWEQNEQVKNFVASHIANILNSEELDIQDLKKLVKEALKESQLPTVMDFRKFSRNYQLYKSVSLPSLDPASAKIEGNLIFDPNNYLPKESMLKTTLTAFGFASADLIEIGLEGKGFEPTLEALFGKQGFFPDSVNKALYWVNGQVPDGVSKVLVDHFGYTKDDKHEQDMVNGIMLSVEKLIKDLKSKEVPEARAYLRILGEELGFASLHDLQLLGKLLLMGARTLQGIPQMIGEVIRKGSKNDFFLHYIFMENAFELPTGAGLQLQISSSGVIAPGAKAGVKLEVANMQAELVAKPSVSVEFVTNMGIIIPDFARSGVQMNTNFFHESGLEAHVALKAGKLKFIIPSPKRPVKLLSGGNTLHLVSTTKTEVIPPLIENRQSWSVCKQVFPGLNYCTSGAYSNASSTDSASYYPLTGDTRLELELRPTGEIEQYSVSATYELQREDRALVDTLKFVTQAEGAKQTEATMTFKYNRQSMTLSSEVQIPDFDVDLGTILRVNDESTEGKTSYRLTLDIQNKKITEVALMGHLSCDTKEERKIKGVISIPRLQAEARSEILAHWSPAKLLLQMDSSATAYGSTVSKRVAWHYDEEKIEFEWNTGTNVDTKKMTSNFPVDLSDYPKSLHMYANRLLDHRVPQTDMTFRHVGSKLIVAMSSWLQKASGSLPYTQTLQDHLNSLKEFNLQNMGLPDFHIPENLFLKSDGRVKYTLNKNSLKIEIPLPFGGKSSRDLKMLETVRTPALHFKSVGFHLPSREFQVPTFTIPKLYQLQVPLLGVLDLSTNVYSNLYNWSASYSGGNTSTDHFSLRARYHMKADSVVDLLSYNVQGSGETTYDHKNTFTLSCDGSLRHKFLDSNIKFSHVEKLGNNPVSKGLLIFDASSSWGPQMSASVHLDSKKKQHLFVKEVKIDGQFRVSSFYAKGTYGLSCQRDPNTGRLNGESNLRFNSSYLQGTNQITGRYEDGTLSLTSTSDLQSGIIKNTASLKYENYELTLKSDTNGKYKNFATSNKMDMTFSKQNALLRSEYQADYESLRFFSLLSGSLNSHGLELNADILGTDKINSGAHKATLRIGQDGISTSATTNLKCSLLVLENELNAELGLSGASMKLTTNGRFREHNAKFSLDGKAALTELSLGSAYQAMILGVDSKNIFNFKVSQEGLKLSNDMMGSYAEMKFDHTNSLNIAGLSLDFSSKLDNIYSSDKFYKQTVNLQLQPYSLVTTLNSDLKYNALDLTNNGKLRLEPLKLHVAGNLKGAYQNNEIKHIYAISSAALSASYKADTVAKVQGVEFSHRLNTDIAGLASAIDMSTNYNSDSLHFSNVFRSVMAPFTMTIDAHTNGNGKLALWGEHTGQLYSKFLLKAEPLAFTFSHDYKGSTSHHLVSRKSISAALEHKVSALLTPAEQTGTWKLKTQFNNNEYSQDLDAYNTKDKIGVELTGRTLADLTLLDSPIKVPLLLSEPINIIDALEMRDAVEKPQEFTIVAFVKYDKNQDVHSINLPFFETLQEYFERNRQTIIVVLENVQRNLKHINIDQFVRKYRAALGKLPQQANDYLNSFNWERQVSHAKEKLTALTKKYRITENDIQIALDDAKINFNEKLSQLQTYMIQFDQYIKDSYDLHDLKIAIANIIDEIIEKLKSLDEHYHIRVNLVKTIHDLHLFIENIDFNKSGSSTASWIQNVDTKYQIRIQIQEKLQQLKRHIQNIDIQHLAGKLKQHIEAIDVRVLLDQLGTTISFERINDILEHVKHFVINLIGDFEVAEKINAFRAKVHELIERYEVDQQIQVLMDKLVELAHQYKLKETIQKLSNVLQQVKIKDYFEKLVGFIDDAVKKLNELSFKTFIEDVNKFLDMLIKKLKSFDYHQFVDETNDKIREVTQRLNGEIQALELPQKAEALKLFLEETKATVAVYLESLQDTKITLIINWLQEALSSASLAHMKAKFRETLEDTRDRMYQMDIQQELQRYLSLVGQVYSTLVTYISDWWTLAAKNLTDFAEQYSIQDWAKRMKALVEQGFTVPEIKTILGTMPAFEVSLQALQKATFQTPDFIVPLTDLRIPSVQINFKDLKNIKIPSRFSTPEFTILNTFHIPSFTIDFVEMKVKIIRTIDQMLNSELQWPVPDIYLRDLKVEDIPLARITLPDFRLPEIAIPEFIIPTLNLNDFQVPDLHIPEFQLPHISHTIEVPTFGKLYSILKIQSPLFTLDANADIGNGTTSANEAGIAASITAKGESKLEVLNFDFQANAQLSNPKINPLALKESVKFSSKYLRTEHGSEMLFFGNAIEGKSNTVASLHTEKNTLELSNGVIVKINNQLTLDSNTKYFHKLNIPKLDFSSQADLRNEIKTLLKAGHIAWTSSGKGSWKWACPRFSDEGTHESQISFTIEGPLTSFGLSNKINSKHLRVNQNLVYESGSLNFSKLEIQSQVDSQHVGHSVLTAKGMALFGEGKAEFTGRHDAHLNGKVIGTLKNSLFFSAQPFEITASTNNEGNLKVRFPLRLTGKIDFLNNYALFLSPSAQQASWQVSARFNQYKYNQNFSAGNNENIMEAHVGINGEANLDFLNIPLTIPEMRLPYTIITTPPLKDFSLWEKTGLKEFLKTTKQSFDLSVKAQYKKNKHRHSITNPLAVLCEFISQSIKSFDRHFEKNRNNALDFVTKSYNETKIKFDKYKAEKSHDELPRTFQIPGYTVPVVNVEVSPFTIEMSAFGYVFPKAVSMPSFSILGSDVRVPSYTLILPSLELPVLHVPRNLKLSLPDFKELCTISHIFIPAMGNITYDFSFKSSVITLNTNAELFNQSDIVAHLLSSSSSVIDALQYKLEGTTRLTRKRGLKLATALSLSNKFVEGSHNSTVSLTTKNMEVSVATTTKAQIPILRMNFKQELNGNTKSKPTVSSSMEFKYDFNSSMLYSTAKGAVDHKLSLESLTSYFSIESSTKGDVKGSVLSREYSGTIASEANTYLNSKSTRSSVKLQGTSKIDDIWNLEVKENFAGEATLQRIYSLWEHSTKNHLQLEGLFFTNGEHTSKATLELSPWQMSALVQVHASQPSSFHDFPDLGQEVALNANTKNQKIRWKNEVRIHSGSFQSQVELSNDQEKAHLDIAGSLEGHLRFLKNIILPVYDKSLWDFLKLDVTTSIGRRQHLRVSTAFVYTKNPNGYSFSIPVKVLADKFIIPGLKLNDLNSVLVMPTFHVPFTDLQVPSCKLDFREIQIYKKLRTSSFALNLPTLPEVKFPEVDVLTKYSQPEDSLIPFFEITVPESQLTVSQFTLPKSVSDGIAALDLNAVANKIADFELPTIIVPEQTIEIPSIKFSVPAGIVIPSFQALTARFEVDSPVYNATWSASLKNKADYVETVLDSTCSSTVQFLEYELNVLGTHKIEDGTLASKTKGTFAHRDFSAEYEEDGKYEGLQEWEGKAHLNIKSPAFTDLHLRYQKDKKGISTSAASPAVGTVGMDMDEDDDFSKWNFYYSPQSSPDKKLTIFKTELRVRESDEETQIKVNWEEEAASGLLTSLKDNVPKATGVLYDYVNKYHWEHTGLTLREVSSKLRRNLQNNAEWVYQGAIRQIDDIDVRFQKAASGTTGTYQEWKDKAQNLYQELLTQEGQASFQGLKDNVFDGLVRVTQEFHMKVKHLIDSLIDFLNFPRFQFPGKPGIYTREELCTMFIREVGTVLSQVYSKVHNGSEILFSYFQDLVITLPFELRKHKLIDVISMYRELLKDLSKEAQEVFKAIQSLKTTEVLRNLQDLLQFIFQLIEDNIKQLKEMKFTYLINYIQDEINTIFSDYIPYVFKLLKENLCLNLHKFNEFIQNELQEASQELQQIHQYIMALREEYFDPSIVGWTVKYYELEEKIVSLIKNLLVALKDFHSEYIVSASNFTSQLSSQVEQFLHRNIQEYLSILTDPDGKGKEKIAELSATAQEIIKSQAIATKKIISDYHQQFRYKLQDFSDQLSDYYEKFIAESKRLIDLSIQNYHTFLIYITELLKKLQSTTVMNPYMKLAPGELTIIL
Briefly: ligand blot; the binding is of lower affinity.

Data set [5] deals with T2, normal VLDL Sf100-400 from a subject with normal plasma TG levels (human, UniProt P04114 28-4563).
T2 construct: Lipoprotein particle; also called N-V1; normal very low density lipoprotein
T2 sequence (P04114 28-4563 limits assumed): as above
Briefly: ligand blot; the binding is of lower affinity.

For data set [6], the target named is T3, low density lipoprotein (LDL) (human, UniProt P04114 28-4563).
T3 construct: Lipoprotein particle
T3 sequence (P04114 28-4563 limits assumed): as above
The data set can be described thus: ligand blot; lower affinity than HTG TGRLP and chylomicrons.

For the molecule B1, the binding result in data set [1] is given as “binds”. Turning to B2, the binding result in data set [2] was “no binding”. In the case of B3, in data set [3], the binding result is “no binding”. In the case of B4, the binding result in data set [4], in data set [5] and in data set [6] was “binds” in each case. For B5, in data set [2], the binding result is “no binding”.
